Biological target: Chlamydia psittaci BioE (Chlamydia psittaci)
Assay: SPR

B1: stearoyl-ACP (E. coli acyl carrier protein carrying a C18 acyl group) (natural protein)
chain: STIEERVKKIIGEQLGVKQEEVTNNASFVEDLGADSLDTVELVMALEEEFDTEIPDEEAEKITTVQAAIDYINGHQA
modifications: holo-ACP carrying a stearoyl (C18) group, made with VhAasS
Work on B1 yielded a koff of 0.00316 s⁻¹.

Source: paper PMC12915131 (2025)
